The record followed here is patent US20190185532A1 (UNIVERSITY OF BIRMINGHAM, published 2019).

In test [1] the target is T1, mouse CLEC14A-ECD-Fc (murine CLEC14A-ECD fused to a human Fc tag) (mouse; human, UniProt Q8VCP9 22-386).
T1 construct: extracellular domain; not shown: human Fc tag
T1 sequence (looked up): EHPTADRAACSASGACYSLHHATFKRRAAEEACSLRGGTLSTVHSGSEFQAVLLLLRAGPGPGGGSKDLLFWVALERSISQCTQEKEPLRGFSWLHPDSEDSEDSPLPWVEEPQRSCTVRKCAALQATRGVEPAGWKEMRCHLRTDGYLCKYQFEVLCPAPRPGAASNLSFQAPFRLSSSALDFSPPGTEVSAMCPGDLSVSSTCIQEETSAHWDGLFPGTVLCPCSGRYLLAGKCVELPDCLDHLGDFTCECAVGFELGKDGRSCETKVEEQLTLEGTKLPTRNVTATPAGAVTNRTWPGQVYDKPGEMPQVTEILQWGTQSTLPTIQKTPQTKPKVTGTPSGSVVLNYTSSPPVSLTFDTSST
The test is described as follows: far western blot, reduced and non-reduced.

Test [2] concerns the target T2, CLEC14A-ECD-Fc (human CLEC14A extracellular domain fused to an Fc tag) (human, UniProt Q86T13 22-396).
T2 construct: Expressed in HEK293T cells; also called hCLEC14A-ECD-Fc; C14A-Fc; not shown: human IgG Fc tag
T2 sequence: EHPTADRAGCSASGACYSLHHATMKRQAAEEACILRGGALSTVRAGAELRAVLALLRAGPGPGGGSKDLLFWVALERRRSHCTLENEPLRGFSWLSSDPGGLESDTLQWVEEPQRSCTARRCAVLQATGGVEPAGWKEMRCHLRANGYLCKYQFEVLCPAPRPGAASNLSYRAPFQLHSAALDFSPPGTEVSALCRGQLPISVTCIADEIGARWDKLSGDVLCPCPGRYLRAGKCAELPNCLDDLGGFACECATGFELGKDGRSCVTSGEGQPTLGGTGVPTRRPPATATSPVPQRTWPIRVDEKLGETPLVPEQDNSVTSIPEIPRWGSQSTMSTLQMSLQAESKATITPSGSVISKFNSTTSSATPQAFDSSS
Description: far western blot; HEK293T lysates probed with CLEC14A-ECD-Fc. The source says: FIG. 2. […] (A) Diagrams of MMRN2 truncation mutants, showing the elastin microfibril interface (EMI) domain, coiled-coil (CC) domain and complement related C1q domain. The minimal CLEC14A binding fragment is highlighted in black. (B,C) HEK293T were transfected with truncation mutants. Lysates were far western blotted under reduced conditions with CLEC14A extracellular domain fused to an Fc tag (CLEC14A-ECD-Fc) and western blotted by use of His tag antibodies. (B) The smallest binding fragment was identified as MMRN2⁴⁸⁷⁻⁸²⁰, MMRN2^FL fails to bind CLEC14A-ECD-Fc. (C) The smallest MMRN2 fragment binding CLEC14A is MMRN2⁵³⁰⁻⁶²⁴. (D) MMRN2⁴⁹⁵⁻⁶⁷⁴ and MMRN2⁴⁹⁵⁻⁶⁰³ bind to streptavidin under reducing conditions after biotinylation. (E) Flow cytometry histograms of HEK293T transfected with GFP tagged CTLD group 14 family members and stained with biotinylated MMRN2⁴⁹⁵⁻⁶⁷⁴ (grey line), confirming binding to CLEC14A and CD93 but not thrombomodulin. Streptavidin-PE was used as a control for background binding (grey shaded).
Whole cell protein lysates were made by incubating with lysis buffer (1% (v/v) NP40, 10 mM Tris pH7.5, 150 mM NaCl and 1 mM EDTA) and pelleting insoluble material. […] The epitope tag of each probed protein was detected with secondary antibody incubation (anti-His or anti-Fc HRP conjugate) and then tertiary anti-mouse HRP for the case of anti-His.

In test [3] the target is T1, mouse CLEC14A-ECD-Fc (murine …). The test is described as follows: far western blot; HEK293T lysate probed with mouse CLEC14A-ECD-Fc.
Test [4] deals with T3, MMRN2^FL (full-length human MMRN2 with a polyhistidine (His) tag) (human, UniProt Q9H8L6 23-949).
T3 construct: mature; Used as lysate of transfected HEK293T cells; Forms large multimers under non-reduced conditions; also called MMRN2 full-length; MMRN2 FL with His tag; not shown: C-terminal BirA and His tags of vector pHL-Avitag3
T3 sequence (looked up): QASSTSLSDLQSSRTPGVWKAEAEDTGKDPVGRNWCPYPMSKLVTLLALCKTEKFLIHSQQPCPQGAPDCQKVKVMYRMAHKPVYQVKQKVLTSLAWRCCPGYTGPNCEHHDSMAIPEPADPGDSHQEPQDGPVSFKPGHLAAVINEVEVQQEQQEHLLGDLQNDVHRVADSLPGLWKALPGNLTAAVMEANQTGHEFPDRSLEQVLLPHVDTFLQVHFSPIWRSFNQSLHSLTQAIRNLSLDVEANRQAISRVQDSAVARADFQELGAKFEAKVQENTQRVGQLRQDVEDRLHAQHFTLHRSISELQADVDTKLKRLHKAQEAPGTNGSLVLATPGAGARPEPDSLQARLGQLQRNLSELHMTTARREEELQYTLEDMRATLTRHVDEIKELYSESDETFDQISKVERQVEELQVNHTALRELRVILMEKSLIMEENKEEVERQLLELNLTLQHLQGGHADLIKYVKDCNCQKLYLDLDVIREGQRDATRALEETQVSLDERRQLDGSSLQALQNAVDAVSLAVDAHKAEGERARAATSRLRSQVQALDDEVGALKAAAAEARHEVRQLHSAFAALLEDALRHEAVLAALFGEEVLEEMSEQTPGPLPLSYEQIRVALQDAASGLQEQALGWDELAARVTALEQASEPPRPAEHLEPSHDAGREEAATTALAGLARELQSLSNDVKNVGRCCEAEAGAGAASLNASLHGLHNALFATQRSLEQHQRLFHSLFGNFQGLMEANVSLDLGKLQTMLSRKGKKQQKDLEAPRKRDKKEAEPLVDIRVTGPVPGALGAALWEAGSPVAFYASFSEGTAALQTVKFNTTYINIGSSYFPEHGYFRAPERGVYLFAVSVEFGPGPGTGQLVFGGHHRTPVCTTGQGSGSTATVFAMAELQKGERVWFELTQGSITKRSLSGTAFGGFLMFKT
Description: far western blot, non-reduced; HEK293T lysates of GFP-tagged proteins probed with MMRN2^FL-His lysate, anti-His detection. The source says:
We previously identified MMRN2 as a binding partner of CLEC14A, one of the members of the C-type lectin domain (CTLD) group 14 family (4). To test whether any of the other CTLD group 14 family members also bind to MMRN2, we employed far western blotting using MMRN2 protein probe as a surrogate for a primary antibody in a standard western blot set up. The CTLD group 14 family members CLEC14A, CD93 and thrombomodulin were all constructed with a C-terminal green fluorescent protein (GFP) tag (FIG. 1A). Constructs were transfected into HEK293T cells and lysates were separated by SDS-PAGE under non-reducing conditions to keep disulphide bonds intact, then transferred to PVDF membranes and blotted using HEK293T lysates overexpressing full-length human MMRN2 with a polyhistidine (His) tag. MMRN2 protein binding was detected by staining with an anti-His tag antibody.
Whole cell protein lysates were made by incubating with lysis buffer (1% (v/v) NP40, 10 mM Tris pH7.5, 150 mM NaCl and 1 mM EDTA) and pelleting insoluble material. Standard protocols for western blotting were used. […] The epitope tag of each probed protein was detected with secondary antibody incubation (anti-His or anti-Fc HRP conjugate) and then tertiary anti-mouse HRP for the case of anti-His.

B1: MMRN2^495-674 (human, expressed in HEK293T, His tag) (ligand)
chain: QKLYLDLDVIREGQRDATRALEETQVSLDERRQLDGSSLQALQNAVDAVSLAVDAHKAEGERARAATSRLRSQVQALDDEVGALKAAAAEARHEVRQLHSAFAALLEDALRHEAVLAALFGEEVLEEMSEQTPGPLPLSYEQIRVALQDAASGLQEQALGWDELAARVTALEQASEPPRP
notes: not shown: C-terminal BirA and His tags of vector pHL-Avitag3
Regarding B1, the binding result in test [1] and in test [2] was “binds” each time.

B2: mouse MMRN2^495-678 (expressed in HEK293T, His tag) (ligand)
chain: QRVNSDVDVAPEGHRDVMHTLEETQVSLDEQHQLDGSSLQALQSTVDAMSSAMDAYRGEGERARAERARIRSQLRALDHAVEALKTAANGTRKEIRLLHGSFTALLEDALRHQAVLAALFGEEMIDEMSEEAPRPLPLDYEQIRLALQDAASGLQEQAIGWEDLATRVEALEKAAGGFVEQHPQ
notes: as for B1
As for B2, the binding result in test [3] is “binds”.

B3: CD93 (human, wild type, C-terminal GFP tag, expressed in HEK293T) (receptor)
chain: TGADTEAVVCVGTACYTAHSGKLSAAEAQNHCNQNGGNLATVKSKEEAQHVQRVLAQLLRREAALTARMSKFWIGLQREKGKCLDPSLPLKGFSWVGGGEDTPYSNWHKELRNSCISKRCVSLLLDLSQPLLPSRLPKWSEGPCGSPGSPGSNIEGFVCKFSFKGMCRPLALGGPGQVTYTTPFQTTSSSLEAVPFASAANVACGEGDKDETQSHYFLCKEKAPDVFDWGSSGPLCVSPKYGCNFNNGGCHQDCFEGGDGSFLCGCRPGFRLLDDLVTCASRNPCSSSPCRGGATCVLGPHGKNYTCRCPQGYQLDSSQLDCVDVDECQDSPCAQECVNTPGGFRCECWVGYEPGGPGEGACQDVDECALGRSPCAQGCTNTDGSFHCSCEEGYVLAGEDGTQCQDVDECVGPGGPLCDSLCFNTQGSFHCGCLPGWVLAPNGVSCTMGPVSLGPPSGPPDEEDKGEKEGSTVPRAATASPTRGPEGTPKATPTTSRPSLSSDAPITSAPLKMLAPSGSPGVWREPSIHHATAASGPQEPAGGDSSVATQNNDGTDGQKLLLFYILGTVVAILLLLALALGLLVYRKRRAKREEKKEKKPQNAADSYSWVPERAESRAMENQYSPTPGTDC
notes: On cells in flow cytometry; as non-reduced HEK293T lysate in far western blots; also called CD93 wild type (wt); cell surface expressed CD93; not shown: C-terminal green fluorescent protein (GFP) tag from vector pEGFP-N1
As for B3, the binding result in test [4] is reported as “binds”.

B4: CLEC14A (human, wild type, C-terminal GFP tag, expressed in HEK293T) (receptor)
chain: EHPTADRAGCSASGACYSLHHATMKRQAAEEACILRGGALSTVRAGAELRAVLALLRAGPGPGGGSKDLLFWVALERRRSHCTLENEPLRGFSWLSSDPGGLESDTLQWVEEPQRSCTARRCAVLQATGGVEPAGWKEMRCHLRANGYLCKYQFEVLCPAPRPGAASNLSYRAPFQLHSAALDFSPPGTEVSALCRGQLPISVTCIADEIGARWDKLSGDVLCPCPGRYLRAGKCAELPNCLDDLGGFACECATGFELGKDGRSCVTSGEGQPTLGGTGVPTRRPPATATSPVPQRTWPIRVDEKLGETPLVPEQDNSVTSIPEIPRWGSQSTMSTLQMSLQAESKATITPSGSVISKFNSTTSSATPQAFDSSSAVVFIFVSTAVVVLVILTMTVLGLVKLCFHESPSSQPRKESMGPPGLESDPEPAALGSSSAHCTNNGVKVGDCDLRDRAEGALLAESPLGSSDA
notes: On cells in flow cytometry; as non-reduced HEK293T lysate in far western blots; also called CLEC14A wt; cell surface expressed CLEC14A; not shown: C-terminal green fluorescent protein (GFP) tag from vector pEGFP-N1
Regarding B4, the binding result in test [4] is given as “binds”.
